Experiments:
[1] = molecular target: T1, Mouse IL-18Rα ectodomain (amino acids 19-329), biotinylated (mouse, UniProt Q61098 19-329, biotin on the AviTag (BirA ligase)); assay: SPR
T1 construct: range 19-329; Secreted from Expi293 cells (H7 signal peptide removed); also called mIL-18Rα; mIL18Ra
T1 sequence: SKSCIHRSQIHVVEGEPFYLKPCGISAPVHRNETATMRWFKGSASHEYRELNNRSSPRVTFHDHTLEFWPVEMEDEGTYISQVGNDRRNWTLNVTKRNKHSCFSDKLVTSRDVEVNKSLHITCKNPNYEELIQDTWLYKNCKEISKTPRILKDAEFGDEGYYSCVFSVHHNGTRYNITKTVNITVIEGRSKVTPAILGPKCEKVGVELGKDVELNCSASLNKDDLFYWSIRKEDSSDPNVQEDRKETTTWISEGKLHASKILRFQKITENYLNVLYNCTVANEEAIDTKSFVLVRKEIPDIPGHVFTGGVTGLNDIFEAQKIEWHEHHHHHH

[2] = molecular target: T2, Mouse IL-18BP (amino acids 31-194), biotinylated (mouse, UniProt Q9Z0M9 29-193, biotin on the AviTag (BirA ligase)); assay: SPR
T2 construct: also called mIL-18BP
T2 sequence: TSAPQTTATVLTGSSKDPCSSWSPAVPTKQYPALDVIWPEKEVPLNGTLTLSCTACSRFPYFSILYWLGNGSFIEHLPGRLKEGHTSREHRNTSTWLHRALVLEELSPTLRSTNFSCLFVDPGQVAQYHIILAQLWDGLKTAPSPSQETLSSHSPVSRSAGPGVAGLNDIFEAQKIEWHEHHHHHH

[3] = molecular target: T2, Mouse IL-18BP (amino acids 31-194), …; assay: SPR; KD ratio relative to WT IL-18
Description: (§1) Experiments were conducted using a Biacore T100 and carried out at 25° C. Biotinylated IL-18Rα or IL-18BP were immobilized onto a Biacore biotin capture chip (Series S CAP sensor chip, GE Healthcare) to yield an Rmax of ˜50 RU (IL-18Rα) or ˜10 RU (IL-18BP). Measurements were made with serial dilutions of the IL-18 variants in HEPES buffered Saline-P+buffer (10 mM HEPES pH 7.4, 150 mM NaCl, 0.005% surfactant P20). The surface was regenerated by three 60-sec injections of regeneration buffer (3/4 (v/v) 8M guanidine hydrochloride with 1/4 (v/v) 1M sodium hydroxide). Experiments were performed in multiple channels simultaneously for increased observations. All data were analyzed with the Biacore T100 evaluation software version 2.0 with a 1:1 Langmuir binding model.

[4] = molecular target: T2, Mouse IL-18BP (amino acids 31-194), …; assay: SPR; KD for IL-18BP over KD for IL-18Rα
Description: as §1

[5] = molecular target: T1, Mouse IL-18Rα ectodomain (amino acids …); assay: on-yeast binding isotherm (flow cytometry)
Method in brief: (§2)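 Yeast displaying IL-18 variants were grown at 30 °C, then induced 1 day at 20 °C, with display checked by anti-myc-PE. Cells were stained on ice with biotinylated IL-18Rα (± IL-18Rβ) or biotinylated IL-18BP in PBS/0.5% BSA/2 mM EDTA. Binding was read by flow cytometry.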

[6] = molecular target: T2, Mouse IL-18BP (amino acids 31-194), …; assay: on-yeast binding isotherm (flow cytometry)
Method in brief: as §2

[7] = molecular target: T2, Mouse IL-18BP (amino acids 31-194), …; assay: SPR; KD(IL-18BP)/KD(IL-18Rα) normalized to WT IL-18
[8] = molecular target: T2, Mouse IL-18BP (amino acids 31-194), …; assay: on-yeast binding isotherms; KD ratio relative to WT IL-18
Description: (§3) Individual colonies of IL-18 yeast were grown overnight at 30° C. in SDCAA liquid media and induced in SGCAA liquid media for 1 day at 20° C. IL-18 display levels on yeast were verified by flow cytometry using an anti-cMyc tag antibody (anti-myc-PE; Cell Signaling Technologies). Receptor staining with biotinylated IL-18Rα (with or without IL-18R β) or biotinylated IL-18BP was performed in PBS supplemented with 0.5% BSA and 2 mM EDTA (PBE) on ice. All analysis was performed on a Sony SA3800 flow cytometer.

[9] = molecular target: T2, Mouse IL-18BP (amino acids 31-194), …; assay: on-yeast binding isotherms; KD for IL-18BP over KD for IL-18Rα
Description: as §3

[10] = molecular target: T2, Mouse IL-18BP (amino acids 31-194), …; assay: SPR (Biacore T100), IL-18BP captured via biotin, IL-18 as analyte
Description: as §1

[11] = molecular target: T1, Mouse IL-18Rα ectodomain (amino acids …); assay: SPR (Biacore T100), receptor captured via biotin, IL-18 as analyte
Method in brief: (§4)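 Biotinylated IL-18Rα or IL-18BP captured on a biotin CAP chip (Rmax ~50 RU or ~10 RU respectively), with serial dilutions of IL-18 variants as analyte. Run at 25° C in HBS-P+ (10 mM HEPES pH 7.4, 150 mM NaCl, 0.005% P20); guanidine/NaOH regeneration. KD from 1:1 Langmuir fit.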

[12] = molecular target: T2, Mouse IL-18BP (amino acids 31-194), …; assay: SPR, immobilized biotinylated mIL-18BP, representative sensorgram FIG. 11B; representative sensorgram, FIG. 11B
Description: By contrast, very little binding is observed with the same variants and mIL-18BP (right). FIG. 11B provides measurement of IL-18BP binding using representative surface plasmon resonance sensor grams between immobilized biotinylated mIL-18BP and the murine DR-IL-18 variants.
as §1

[13] = molecular target: T2, Mouse IL-18BP (amino acids 31-194), …; assay: on-yeast binding isotherm (flow cytometry): yeast-displayed murine IL-18 variant titrated with mIL-18BP, % max
Description: as §3

[14] = molecular target: T2, Mouse IL-18BP (amino acids 31-194), …; assay: yeast binding isotherms and SPR; members per FIG. 11A legend
[15] = molecular target: T2, Mouse IL-18BP (amino acids 31-194), …; assay: SPR; KD ratio relative to WT IL-18; SPR; ratio normalized to WT
Method in brief: as §4

[16] = molecular target: T2, Mouse IL-18BP (amino acids 31-194), …; assay: SPR; KD for IL-18BP over KD for IL-18Rα; SPR; ratio of measured KDs
Description: as §1

[17] = molecular target: T2, Mouse IL-18BP (amino acids 31-194), …; assay: SPR (Biacore T100), IL-18BP captured via biotin, IL-18 as analyte; SPR; very weak binding, about 15 µM
Description: as §1

[18] = molecular target: T2, Mouse IL-18BP (amino acids 31-194), …; assay: on-yeast binding isotherms; 10 µM used for NBD; on-yeast isotherm; ratio is a bound reckoned from 10 µM put in for NBD
Description: as §3

[19] = molecular target: T2, Mouse IL-18BP (amino acids 31-194), …; assay: on-yeast binding isotherms; KD ratio relative to WT IL-18; on-yeast isotherm; normalized ratio from 10 µM put in for NBD
Description: as §3

[20] = molecular target: T2, Mouse IL-18BP (amino acids 31-194), …; assay: SPR; 30 µM used for NBD; SPR; ratio is a bound reckoned from 30 µM put in for NBD
Description: as §1

[21] = molecular target: T2, Mouse IL-18BP (amino acids 31-194), …; assay: SPR; KD ratio relative to WT IL-18; SPR; normalized ratio from 30 µM put in for NBD
Description: as §1

[22] = molecular target: T2, Mouse IL-18BP (amino acids 31-194), …; assay: SPR (Biacore T100), IL-18BP captured via biotin, IL-18 as analyte; SPR; weak binding, 3.8 µM
Description: as §1

Row | Binder | Kd [5] [nM] | Kd [11] [nM] | Kd [14] [nM] | Dissociation Constant Ratio normalized to WT IL-18 [15] | KD ratio IL-18BP/IL-18Rα [16] | KD ratio IL-18BP/IL-18Rα [18] | Dissociation Constant Ratio normalized to WT IL-18 [19] | further results
1 | Mouse Interleukin-18 (mature form), wild type (ligand, also called mIL-18 WT; WT mIL-18) NFGRLHCTTAVIRNINDQVLFVDKRQPVFEDMTDIDQSASEPQTRLIIYMYKDSEVRGLAVTLSVKDSKMSTLSCKNKIISFEEMDPPENIDDIQSDLIFFQKRVPGHNKMEFESSLYEGHFLACQKEDDAFKLILKKKDENGDKSVMFTLTNLHQS | 11.3 | 0.6 | – | – | – | – | – | Kd [1]: 0.6 nM; Kd [2]: 0.0011 nM; Dissociation Constant Ratio normalized to WT IL-18 [3]: 1; KD ratio IL-18BP/IL-18Rα [4]: 0.00183; Kd [6]: 2.13 nM; IL-18 BP:Rα Dissociation Constant Ratio [7]: 1; Dissociation Constant Ratio normalized to WT IL-18 [8]: 1; KD ratio IL-18BP/IL-18Rα [9]: 0.188; Kd [10]: 0.0011 nM; Kd [12]: 0.0008 nM; EC50 (read off the curve) [13]: ~20 nM
2 | SEQ ID NO: 67 (murine DR-IL-18 variant mB1) (ligand, Engineered variant) HFGRLHCTTAVIRNINDQVLFVDKRQPVFEDMTDIDQSASEPQTRLIIYGYADSDARAKAVTLSVKDSKMSTLSCKNKIISFEEMDPPENIDDIQSDLIFFQKSVPGHNKMEFESSLYEGHFLACQKEDDAFKLILKKKDENGDKSVMFTVTNLHQS | 17.9 | 0.7 | > 1000 | 1.15e+07 | 21000 | > 559 | > 2960 | Kd [17]: 14700 nM
3 | SEQ ID NO: 64 (murine DR-IL-18 variant mE8) (ligand, Engineered variant) NFGRLHCTTAVIRNINDQVLFVDKRQPVFEDMTDIDQSASEPQTRLIIYVYTDGRRRGKAVTLSVKDSKMSTLSCKNKIISFEEMDPPENIDDIQSDLIFFQKKVPGHDKMEFESSLYEGHFLACQKEDDAFKLILKKKDENGDKSVMFTLTNLHQS | 42 | 1.69 | – | – | – | > 238 | > 1260 | KD ratio IL-18BP/IL-18Rα [20]: > 17800; Dissociation Constant Ratio normalized to WT IL-18 [21]: > 9.68e+06
4 | SEQ ID NO: 60 (murine DR-IL-18 variant mCS1) (ligand, Engineered variant) NFGRLHCTTAVIRNINDQVLFVDKRQPVFEDMTDIDQSASEPQTRLIIYGYADSRVRGKAVTLSVKDSKMSTLSCKNKIISFEEMDPPENIDDIQSDLIFFQKRVPGHNKMEFESSLYEGHFLACQKEDDAFKLILKKKDENGDKSVMFTLTNLHQS | 10.7 | 0.54 | > 1000 | 3.84e+06 | 7040 | > 935 | > 4960 | Kd [22]: 3800 nM

Source: patent US20230277625A1 (SIMCHA IL 18, published 2023)
